From publication PMC6625726, “A polymorphic helix of a Salmonella needle protein relays signals defining distinct steps in type III secretion” (PLoS Biology, 2019)

B1: PrgI^V67A, recombinant (natural protein, Salmonella enterica serovar Typhimurium, UniProt P41784 1-80, looked up)
chain: MATPWSGYLDDVSAKFDTGVDNLQTQVTEALDKLAAKPSDPALLAAYQSKLSEYNLYRNAQSNTVKAFKDIDAAIIQNFR
notes: needle filament protein PrgI of the SPI-1 T3SS, 80 amino acids; not shown: His6, N-terminal, cleaved
B2: PrgI^S49A, recombinant (natural protein, Salmonella enterica serovar Typhimurium, UniProt P41784 1-80, looked up)
chain: MATPWSGYLDDVSAKFDTGVDNLQTQVTEALDKLAAKPSDPALLAAYQAKLSEYNLYRNAQSNTVKVFKDIDAAIIQNFR
notes: as for B1
B3: PrgI, wild type, recombinant (natural protein)
chain: MATPWSGYLDDVSAKFDTGVDNLQTQVTEALDKLAAKPSDPALLAAYQSKLSEYNLYRNAQSNTVKVFKDIDAAIIQNFR
notes: needle filament protein PrgI of the SPI-1 T3SS, 80 amino acids; pET15b, thrombin-cleavable tag; polymerised in vitro into filaments; also called PrgI^WT; WT PrgI; not shown: His6, N-terminal, cleaved
B4: PrgI^K66E, recombinant (natural protein, Salmonella enterica serovar Typhimurium, UniProt P41784 1-80, looked up)
chain: MATPWSGYLDDVSAKFDTGVDNLQTQVTEALDKLAAKPSDPALLAAYQSKLSEYNLYRNAQSNTVEVFKDIDAAIIQNFR
notes: as for B1
B5: PrgI^T3A, recombinant (natural protein, Salmonella enterica serovar Typhimurium, UniProt P41784 1-80, looked up)
chain: MAAPWSGYLDDVSAKFDTGVDNLQTQVTEALDKLAAKPSDPALLAAYQSKLSEYNLYRNAQSNTVKVFKDIDAAIIQNFR
notes: as for B1
B6: PrgI^L31A, recombinant (natural protein, Salmonella enterica serovar Typhimurium, UniProt P41784 1-80, looked up)
chain: MATPWSGYLDDVSAKFDTGVDNLQTQVTEAADKLAAKPSDPALLAAYQSKLSEYNLYRNAQSNTVKVFKDIDAAIIQNFR
notes: as for B1
B7: PrgI^L56A, recombinant (natural protein, Salmonella enterica serovar Typhimurium, UniProt P41784 1-80, looked up)
chain: MATPWSGYLDDVSAKFDTGVDNLQTQVTEALDKLAAKPSDPALLAAYQSKLSEYNAYRNAQSNTVKVFKDIDAAIIQNFR
notes: as for B1
B8: PrgI^D70K, recombinant (natural protein, Salmonella enterica serovar Typhimurium, UniProt P41784 1-80, looked up)
chain: MATPWSGYLDDVSAKFDTGVDNLQTQVTEALDKLAAKPSDPALLAAYQSKLSEYNLYRNAQSNTVKVFKKIDAAIIQNFR
notes: as for B1
B9: PrgI^L9A, recombinant (natural protein, Salmonella enterica serovar Typhimurium, UniProt P41784 1-80, looked up)
chain: MATPWSGYADDVSAKFDTGVDNLQTQVTEALDKLAAKPSDPALLAAYQSKLSEYNLYRNAQSNTVKVFKDIDAAIIQNFR
notes: as for B1
B10: PrgI^F16A, recombinant (natural protein, Salmonella enterica serovar Typhimurium, UniProt P41784 1-80, looked up)
chain: MATPWSGYLDDVSAKADTGVDNLQTQVTEALDKLAAKPSDPALLAAYQSKLSEYNLYRNAQSNTVKVFKDIDAAIIQNFR
notes: as for B1
B11: PrgI, wild type, in S. Typhimurium (natural protein)
chain: MATPWSGYLDDVSAKFDTGVDNLQTQVTEALDKLAAKPSDPALLAAYQSKLSEYNLYRNAQSNTVKVFKDIDAAIIQNFR
notes: needle filament protein PrgI of the SPI-1 T3SS, 80 amino acids; assembled in vivo into the needle filament of the injectisome; also called WT PrgI; needle filament; source: S. Typhimurium ΔprgI ΔprgJ, from the low-copy plasmid pWSK29 (with prgJ); or chromosomal in wild-type and ΔsipD strains
B12: PrgI^R58A, recombinant (natural protein, Salmonella enterica serovar Typhimurium, UniProt P41784 1-80, looked up)
chain: MATPWSGYLDDVSAKFDTGVDNLQTQVTEALDKLAAKPSDPALLAAYQSKLSEYNLYANAQSNTVKVFKDIDAAIIQNFR
notes: needle filament protein PrgI of the SPI-1 T3SS, 80 amino acids; used for solid-state NMR; not shown: His6, N-terminal, cleaved
B13: PrgI^V20A, recombinant (natural protein, Salmonella enterica serovar Typhimurium, UniProt P41784 1-80, looked up)
chain: MATPWSGYLDDVSAKFDTGADNLQTQVTEALDKLAAKPSDPALLAAYQSKLSEYNLYRNAQSNTVKVFKDIDAAIIQNFR
notes: as for B12
B14: PrgI^Q77R, recombinant (natural protein, Salmonella enterica serovar Typhimurium, UniProt P41784 1-80, looked up)
chain: MATPWSGYLDDVSAKFDTGVDNLQTQVTEALDKLAAKPSDPALLAAYQSKLSEYNLYRNAQSNTVKVFKDIDAAIIRNFR
notes: as for B12

Molecular target: the molecule itself
Assay: cryo-EM structure; filaments polymerized in vitro from purified protein, sonicated; helical reconstruction
B1: binds.
B2: binds.

Molecular target: the molecule itself
Assay: in vitro polymerization seen by negative-stain electron microscopy; His-tag cleaved with thrombin; concentrated to approximately 1 mg/ml in 20 mM MES, pH 5.5, overnight at room temperature; 2% phosphotungstic acid stain
B3: binds.
B4: binds.
B5: binds.
B6: binds.
B7: binds.
B8: binds.
B9: binds.
B10: binds.

Molecular target: the molecule itself
Assay: cryo-EM structure; needle filaments boxed out from fully assembled needle complexes isolated by affinity chromatography (in vivo assembled, attached to the base); helical reconstruction
B11: binds.

Molecular target: the molecule itself
Assay: solid-state NMR of filaments; magic-angle spinning, 800 MHz, 11 kHz, approximately 278 K; 13C-detected 1D and 2D spectra of needle filaments
B12: binds.
B13: binds.
B14: binds.
